Assay results taken from publication PMC9247503, “Oligomerization and Spatial Distribution of Kvβ1.1 and Kvβ2.1 Regulatory Subunits” (Frontiers in Physiology, 2022).
Values joined by “and” are separate entries in the source; they are usually repeats but may differ in a detail not shown here. Equal values may be shown once.

B1: Kvβ2.1YFP, P62482 1-367 (natural protein)
chain: MYPESTTGSPARLSLRQTGSPGMIYSTRYGSPKRQLQFYRNLGKSGLRVSCLGLGTWVTFGGQITDEMAEHLMTLAYDNGINLFDTAEVYAAGKAEVVLGNIIKKKGWRRSSLVITTKIFWGGKAETERGLSRKHIIEGLKASLERLQLEYVDVVFANRPDPNTPMEETVRAMTHVINQGMAMYWGTSRWSSMEIMEAYSVARQFNLIPPICEQAEYHMFQREKVEVQLPELFHKIGVGAMTWSPLACGIVSGKYDSGIPPYSRASLKGYQWLKDKILSEEGRRQQAKLKELQAIAERLGCTLPQLAIAWCLRNEGVSSVLLGASNAEQLMENIGAIQVLPKLSSSIVHEIDSILGNKPYSKKDYRS
B2: Kvβ2.1CFP (natural protein, mouse (from the prefix m in mKvβ2.1), UniProt P62482 1-367, looked up)
chain: B1 chain
notes: voltage-gated potassium channel regulatory subunit Kvβ2.1, mouse by the prefix m in mKvβ2.1; also called mKvβ2.1 in pECFP-N1; source: HEK-293, transfected; in lysate (co-IP) and in cells or membrane sheets (FRET)
B3: Kvβ2.1YFP (natural protein, mouse (from the prefix m in mKvβ2.1), UniProt P62482 1-367, looked up)
chain: B1 chain
notes: voltage-gated potassium channel regulatory subunit Kvβ2.1, mouse by the prefix m in mKvβ2.1; also called mKvβ2.1 in pEYFP-N1; Kvb2.1 YFP; source: HEK-293, transfected; in cells or membrane sheets (FRET) and in lysate (semidenaturing gel)
B4: Kvβ1.1YFP (natural protein, mouse (from the prefix m in mKvβ1.1), UniProt P63143 1-401, looked up)
chain: MQVSIACTEHNLKSRNGEDRLLSKQSSNAPNVVNAARAKFRTVAIIARSLGTFTPQHHISLKESTAKQTGMKYRNLGKSGLRVSCLGLGTWVTFGGQISDEVAERLMTIAYESGVNLFDTAEVYAAGKAEVILGSIIKKKGWRRSSLVITTKLYWGGKAETERGLSRKHIIEGLKGSLQRLQLEYVDVVFANRPDSNTPMEEIVRAMTHVINQGMAMYWGTSRWSAMEIMEAYSVARQFNMIPPVCEQAEYHLFQREKVEVQLPELYHKIGVGAMTWSPLACGIISGKYGNGVPESSRASLKCYQWLKERIVSEEGRKQQNKLKDLSPIAERLGCTLPQLAVAWCLRNEGVSSVLLGSSTPEQLIENLGAIQVLPKMTSHVVNEIDNILRNKPYSKKDYRS
notes: voltage-gated potassium channel regulatory subunit Kvβ1.1 (splice form 1.1 of Kvβ1), mouse by the prefix m in mKvβ1.1; also called mKvβ1.1 in pEYFP-N1; source: HEK-293, transfected; in cells or membrane sheets (FRET) and in lysate (semidenaturing gel)
B5: Kv1.3YFP (natural protein, UniProt P15384 1-525, looked up)
chain: MTVVPGDHLLEPEAAGGGGGDPPQGGCVSGGGCDRYEPLPPALPAAGEQDCCGERVVINISGLRFETQLKTLCQFPETLLGDPKRRMRYFDPLRNEYFFDRNRPSFDAILYYYQSGGRIRRPVNVPIDIFSEEIRFYQLGEEAMEKFREDEGFLREEERPLPRRDFQRQVWLLFEYPESSGPARGIAIVSVLVILISIVIFCLETLPEFRDEKDYPASPSQDVFEAANNSTSGASSGASSFSDPFFVVETLCIIWFSFELLVRFFACPSKATFSRNIMNLIDIVAIIPYFITLGTELAERQGNGQQAMSLAILRVIRLVRVFRIFKLSRHSKGLQILGQTLKASMRELGLLIFFLFIGVILFSSAVYFAEADDPSSGFNSIPDAFWWAVVTMTTVGYGDMHPVTIGGKIVGSLCAIAGVLTIALPVPVIVSNFNYFYHRETEGEEQAQYMHVGSCQHLSSSAEELRKARSNSTLSKSEYMVIEEGGMNHSAFPQTPFKTGNSTATCTTNNNPNSCVNIKKIFTDV
notes: voltage-gated potassium channel Kv1.3 (α subunit); Used as the tetrameric positive control; source: HEK-293, transfected; in cells (FRET) and in lysate (semidenaturing gel)

What was measured:
[1] = target: T1, Kvβ2.1YFP (mouse (from the prefix m in mKvβ2.1)), P62482; experiment: semidenaturing SDS-PAGE with immunoblot; total lysates of transfected HEK-293 cells, not boiled, 8% SDS-PAGE, immunoblot with anti-GFP antibody; settings: remark: other sources report otherwise
T1 chain: B1 chain

[2] = target: T2, Kvβ2.1CFP (mouse (from the prefix m in mKvβ2.1)), P62482; experiment: FRET or BRET; linear unmixing FRET (lux-FRET) on suspensions of living HEK-293 cells in PBS at 37°C, different donor molar ratios; fit of apparent EfD and EfA against xD gives E and n (units per complex); settings: remark: other sources report otherwise
T2 chain: B1 chain

Kvβ1.1YFP = target: B4; experiment: as above; settings: partners not purified
Kvβ1.1CFP = target: T3, Kvβ1.1CFP (mouse (from the prefix m in mKvβ1.1), UniProt P63143 1-401); experiment: as above; settings: partners not purified
T3 construct: voltage-gated potassium channel regulatory subunit Kvβ1.1 (splice form 1.1 of Kvβ1), mouse by the prefix m in mKvβ1.1; also called mKvβ1.1 in pECFP-N1; Kvb1.1CFP; source: HEK-293, transfected; in lysate (co-IP) and in cells or membrane sheets (FRET)
T3 sequence (looked up): B4 chain

[3] = target: the molecule itself; experiment: semidenaturing SDS-PAGE with immunoblot; total lysates of transfected HEK-293 cells, not boiled, 8% SDS-PAGE, immunoblot with anti-GFP antibody

Row | Binder | FRET efficiency (E) (Kvβ1.1CFP) | stoichiometry N (Kvβ1.1CFP) | stoichiometry N [3] | also measured
1 | B1 |  |  |  | stoichiometry N [1]: 2 and 4; FRET efficiency (E) [2]: 22.3%; stoichiometry N [2]: 2.09
2 | B2 |  |  |  | FRET efficiency (E) (Kvβ1.1YFP): 30.4%; stoichiometry N (Kvβ1.1YFP): 1.99
3 | B3 | 32.5% | 1.88 |  | 
4 | B4 | 30.2% | 1.93 | 2 and 4 | 
5 | B5 |  |  | 2 and 4 | 
